Molecular target: T1, WWP2 WT (human, UniProt O00308 1-870)
T1 construct: called the ~100 kDa WWP2 protein; Unlabelled WWP2 titrated in the fluorescence anisotropy assays; also called WT WWP2; source: E. coli (BL-21 (DE3) Codon+ or BL21 Rosetta (DE3) pLysS), purified (glutathione agarose, GST removed, size exclusion)
Assay: fluorescence polarisation; fluorescence anisotropy; 100 nM fluorescein-labeled WBP2, WWP2 titrated; 23 °C; quadratic binding fit
Details: both partners purified

T1 sequence (O00308 whole entry): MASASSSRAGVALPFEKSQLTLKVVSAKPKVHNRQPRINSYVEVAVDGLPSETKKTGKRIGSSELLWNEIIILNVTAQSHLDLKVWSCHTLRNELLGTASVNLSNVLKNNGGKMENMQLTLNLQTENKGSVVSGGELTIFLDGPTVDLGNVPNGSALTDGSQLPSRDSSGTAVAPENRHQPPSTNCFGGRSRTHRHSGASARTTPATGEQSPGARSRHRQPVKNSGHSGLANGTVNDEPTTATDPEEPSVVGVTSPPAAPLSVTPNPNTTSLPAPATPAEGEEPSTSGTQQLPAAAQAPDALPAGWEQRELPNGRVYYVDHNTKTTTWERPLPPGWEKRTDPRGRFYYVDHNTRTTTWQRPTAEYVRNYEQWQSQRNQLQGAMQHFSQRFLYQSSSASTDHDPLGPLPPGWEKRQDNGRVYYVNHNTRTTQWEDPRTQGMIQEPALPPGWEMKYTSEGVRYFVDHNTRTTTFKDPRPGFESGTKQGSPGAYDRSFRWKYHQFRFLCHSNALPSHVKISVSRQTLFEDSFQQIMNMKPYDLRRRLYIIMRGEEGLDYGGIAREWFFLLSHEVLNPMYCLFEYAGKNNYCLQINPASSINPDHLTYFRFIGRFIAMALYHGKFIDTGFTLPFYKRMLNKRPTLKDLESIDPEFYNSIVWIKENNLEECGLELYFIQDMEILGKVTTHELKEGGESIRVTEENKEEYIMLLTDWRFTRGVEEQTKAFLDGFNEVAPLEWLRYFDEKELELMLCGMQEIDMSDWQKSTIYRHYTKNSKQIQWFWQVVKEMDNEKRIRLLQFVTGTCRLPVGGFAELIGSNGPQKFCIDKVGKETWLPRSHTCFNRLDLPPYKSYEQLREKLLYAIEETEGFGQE

Kd: 3.7 µM
B1: Fluorescein N-terminal-labeled WBP2 (aa. 149-261) (domain or fragment, human, UniProt Q969T9 149-261, looked up)
chain: PSGAYVYPPPVANGMYPCPPGYPYPPPPPEFYPGPPMMDGAMGYVQPPPPPYPGPMEPPVSGPDVPSTPAAEAKAAEAAASAYYNPGNPHNVYMPTSQPPPPPYYPPEDKKTQ
modifications: fluorescein (5/6-carboxyfluorescein, FAM) on the N-terminus
notes: WBP2, human, aa; 149-261, from pET28b-WBP2; Labelled 'with a similar procedure as that used for WWP2' (N-terminal Cys after protease cleavage), so an N-terminal Cys and loss of the tag may apply; also called FAM labeled WBP2; fluorescein-labeled WBP2; source: E. coli Rosetta pLysS, purified (Ni-NTA, Superdex 75), fluorescein labelled

Reference: paper PMC9034101, “Enzymatic analysis of WWP2 E3 ubiquitin ligase using protein microarrays identifies autophagy-related substrates” (The Journal of Biological Chemistry, 2022)
